Consider 1 molecule from US6989144.

Holding throughout (assay): cell ELISA: soluble GPVI-Fc (0.45-1000 nM) competing with GPVI-U937 cells for 100 nM scFv
In general terms: In an ELISA, binding on a coated surface is turned into a signal by an enzyme label.

For one assay, the target named is T1, scFv clone C3.
T1 construct: human scFv from a phage display library

In a further assay the target is T2, scFv clone A10.
T2 construct: human scFv from a phage display library; detected through an HA tag, purified through a polyHis tail

For a further assay, the target named is T3, scFv clone B4.
T3 construct: human scFv from a phage display library

B1: soluble human GPVI-Fc (extracellular domain of GPVI fused to Fc; hGPVI-human IgG1Fc) (Fc fusion)
chain: QSGPLPKPSLQALPSSLVPLEKPVTLRCQGPPGVDLYRLEKLSSSRYQDQAVLFIPAMKRSLAGRYRCSYQNGSLWSLPSDQLELVATGVFAKPSLSAQPGPAVSSGGDVTLQCQTRYGFDQFALYKEGDPAPYKNPERWYRASFPIITVTAAHSGTYRCYSFSSRDPYLWSAPSDPLELVVTGTSVTPSRLPTEPPSSVAEFSEATAELTVSFTNKVFTTETSRSITTSPKESDSPAGPARQYYTKGN
notes: also called hGPVI-hIgG1Fc; hrGPVI; not shown: human IgG1 Fc
Consider B1, for which the results for the concentration for half-maximal inhibition (IC50) in the assay with scFv clone C3, with scFv clone A10 and with scFv clone B4 were 38 nM, 4.5 nM and 5 nM, respectively.
